The results in this text go back to PMC3783652.

B1: 18SGDsYDSM24, sTyr21 sulfopeptide of CXCR4 (peptide)
peptide: SGDYDSM
HELM: PEPTIDE1{[ac].S.G.D.[O=C([C@H](Cc1ccc(OS(=O)(=O)O)cc1)N[*:1])[*:2]].D.S.M.[am]}$$$$V2.0
SMILES: CSCC[C@H](NC(=O)[C@H](CO)NC(=O)[C@H](CC(=O)O)NC(=O)[C@H](Cc1ccc(OS(=O)(=O)O)cc1)NC(=O)[C@H](CC(=O)O)NC(=O)CNC(=O)[C@H](CO)NC(C)=O)C(N)=O
B2: 9SDNYTEE15, unsulfated Tyr12 peptide of CXCR4 (peptide)
peptide: Ac-SDNYTEE-NH2
B3: 4ISIsYTSD10, sTyr7 sulfopeptide of CXCR4 (peptide)
peptide: ISIYTSD
HELM: PEPTIDE1{[ac].I.S.I.[O=C([C@H](Cc1ccc(OS(=O)(=O)O)cc1)N[*:1])[*:2]].T.S.D.[am]}$$$$V2.0
SMILES: CC[C@H](C)[C@H](NC(C)=O)C(=O)N[C@@H](CO)C(=O)N[C@H](C(=O)N[C@@H](Cc1ccc(OS(=O)(=O)O)cc1)C(=O)N[C@H](C(=O)N[C@@H](CO)C(=O)N[C@@H](CC(=O)O)C(N)=O)[C@@H](C)O)[C@@H](C)CC
B4: 18SGDYDSM24, unsulfated Tyr21 peptide of CXCR4 (peptide)
peptide: Ac-SGDYDSM-NH2
B5: 4ISIYTSD10, unsulfated Tyr7 peptide of CXCR4 (peptide)
peptide: Ac-ISIYTSD-NH2
B6: 9SDNsYTEE15, sTyr12 sulfopeptide of CXCR4 (peptide)
peptide: SDNYTEE
HELM: PEPTIDE1{[ac].S.D.N.[O=C([C@H](Cc1ccc(OS(=O)(=O)O)cc1)N[*:1])[*:2]].T.E.E.[am]}$$$$V2.0
SMILES: CC(=O)N[C@@H](CO)C(=O)N[C@@H](CC(=O)O)C(=O)N[C@@H](CC(N)=O)C(=O)N[C@@H](Cc1ccc(OS(=O)(=O)O)cc1)C(=O)N[C@H](C(=O)N[C@@H](CCC(=O)O)C(=O)N[C@@H](CCC(=O)O)C(N)=O)[C@@H](C)O

The experiment has as its target CXCL12_(2), constitutively dimeric CXCL12 variant (locked dimer) (UniProt P48061). The experiment in a line: NMR titration.
In the case of B1, the Kd – broadly, a measure of binding affinity in units of concentration – was determined as 211 µM. Consider B2, for which the Kd came to 332 µM. Turning to B3, the Kd was 386 µM.

On to B4, for which the Kd amounted to 831 µM. For the molecule B5, the Kd is 418 µM. This Kd lies about 2-fold lower than the previous one. The figure for B6 is 266 µM.
